Reference: article PMC3814001
Values belong to the substance of their own block, whether it stands above or below them.

Columns and labels:
[1] = molecular target: RIIα (type IIα regulatory subunit of PKA), wild type, RIIα-6xHis (mouse) (UniProt P12367); experiment: native gel or EMSA; SEC peak fraction on precast 3–8% Tris-Acetate native gels, 50 mM Tris pH 8.3, 50 mM Tricine, silver staining
[2] = molecular target: PKA holoenzyme (PKA_(holo)) formed by wild-type RIIα and PKAc (mouse) (UniProt P12367); experiment: as above
[3] = molecular target: AKAP18γ (human γ isoform of AKAP18), strep-II and 6xHis tagged (human)

AKAP18γ–GFP (human), sequence (Q9P0M2 whole entry): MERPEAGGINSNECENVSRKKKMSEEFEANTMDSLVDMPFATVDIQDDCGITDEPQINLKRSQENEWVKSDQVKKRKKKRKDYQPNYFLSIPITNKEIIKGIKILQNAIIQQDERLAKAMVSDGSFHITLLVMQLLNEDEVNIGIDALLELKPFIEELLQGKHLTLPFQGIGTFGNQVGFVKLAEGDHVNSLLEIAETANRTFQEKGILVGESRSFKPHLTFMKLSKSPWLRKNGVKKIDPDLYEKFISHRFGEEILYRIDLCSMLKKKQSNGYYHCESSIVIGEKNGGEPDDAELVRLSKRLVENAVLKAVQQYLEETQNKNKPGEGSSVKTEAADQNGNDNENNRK

stoichiometry N [1]: 2 subunits
Substance: RIIα (type IIα regulatory subunit of PKA), wild type, RIIα-6xHis (from UniProt P12367 1-401) (natural protein; other documents disagree on this pair)

stoichiometry N (AKAP18γ per RIIα dimer with two PKAc) [2]: 1
Substance: AKAP18γ (human γ isoform of AKAP18), strep-II and 6xHis tagged (natural protein)

cAMP phosphodiesterase activity in anti-GFP immune complexes from HEK293 cells, fold over GFP controls or rolipram-treated samples (AKAP18γ–GFP (human)): 3.27 fold
basal (cAMP-independent) 32P incorporation into PDE4D by PKA holoenzyme with against without AKAP18γ, autoradiography; the substrate here was purified MBP-PDE4D3 [3]: 1.87 fold
Substance: PDE4D (type 4 phosphodiesterase isoforms PDE4D3 / PDE4D5) (enzyme)
